Data taken from paper PMC5519287 (Cell reports, 2017).

Target: the molecule itself
Assay: single molecule analysis

B1: EGFP-S1C 4KA (domain or fragment, UniProt Q13586 342-465, looked up)
chain: YAPEALQKWLQLTHEVEVQYYNIKKQNAEKQLLVAKEGAEAIAAARNTLFGTFHVAHSSSLDDVDHKILTAKQALSEVTAALRERLHRWQQIEILCGFQIVNNPGIHSLVAALNIDPSWMGSTR
stoichiometry N: 2
